Source: article PMC9130890 (Advanced Science, 2022)

Key:
[1] = target: HIV-1 C1080 Env trimer, stabilized in the prefusion-closed state (HIV-1 (CRF01_AE strain C1080))
HIV-1 BG505 Env trimer = HIV-1 BG505 Env trimer (HIV-1 (strain BG505), UniProt Q2N0S6)

B1: J038 (antibody, V domains shown)
VH: QLHLQESGPGLVRPSETLSLTCDVSGGAFNDAYCSWIRRFPGGGLEWIGRISGRDGYVESNPALTGRVTMSIDATWKKIVLRLTSMTASDTATYFCAGETPEDDFGYYQPYFKTWGQGLGVTVSS
VL: DIQLIQSPSSVSASLGDRVTITCRSTQGIGSDLAWYQATPGTAPKLLIYNSFALHKGVPSRFSGSGSGTEFSLTITGLQPEDFATYYCQHYRRLPLTFGGGTNIEVK
What does the source list for B1?
binding result [1]: binds; binding result (HIV-1 BG505 Env trimer): binds
